According to the supplement of paper PMC11502859:
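Further: lentiviral eGFP-IRES-mCherry reporter pool sorted by FACS 96 h post-transduction, gated on mCherry-high cells, Illumina read counts normalized per million, median across four biological replicates.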

What follows are substances tested on HEK293T (assay: median enrichment of reporter reads in eGFP-reduced (low/intermediate) vs eGFP-high sorted cells (eGFP-extension fusion abundance) (ratio); higher = stronger loss of eGFP-fusion protein abundance (more destabilising extension)).
With IIIIII [Ile06] the median enrichment was 8.61. IIIIIII [Ile07] was tested, and the median enrichment was 11. In the case of IIIIIIII [Ile08], the median enrichment is reported as 5.38. For IIIIIIIII [Ile09], the median enrichment was 9.46. With IIIIIIIIII [Ile10] the median enrichment was 6.67. In the case of “IPVPEHQIPRQLMRLAQCVTEAPGSQQSRAYSAHQAEQATGRDDASGQGSAGDRDYRPAVSGPLQRLPTQGLVGVKHDDNTYT [CCDC137]”, the median enrichment is reported as 0.864. “ITGTACLGTRFPPAAVTMVASTATPGVQSTAPCPPCVPRSRGSVHHSSPRWRAGLPGGSPVALPWLWGWRDLARMNPPVPGTL [PIGQ]” was tested, and the median enrichment was 3.37. In the case of “IVGPKGKEGKSAPRLGPGTHTPPDHLGNSRALRSRMLTKSNIQSLVNQDAVSPSVWQSVALAAGKLKADFHSYVHVDIHFRSS [RNF150]”, the median enrichment is reported as 4.94. “IYPSPGSPGHSVLSKTRMWYQLWKRKVSCQQYLLPSRQPSQVRHLLRSHREPGVCTSWKSCHQPGHSSHRIDQRACFLIQENE [SPSB4]” was tested, and the median enrichment was 7.01. For “KAAWPQYGPLFAGFSSSLEPPSVGGPPISPLKPALLFWGDPLLLSFPKHGVPWPAFFLCLWWGWGGLFLLAPSGGGGQVTRSG [JUP]”, the median enrichment was 4.75. Substance KAGTDLGPKIPFQRN [RBMXL2] has a median enrichment of 0.175. Work on KAQKTEALLPLAGSRDI [PNMA5] yielded a median enrichment of 0.301. In the case of KARFLAVQFLLKVPLFPKSNY [HBB], the median enrichment is reported as 5.47. With KCDKVQPSDLIIHKIIYT [ZNF679] the median enrichment was 15.1. “KCEACDKVSIWKSHLKDIGEFILERKLTNVRFLTRLGSDSHLEQHTGLHTGEKPYKCNECGKAFGKQSTLIHHQAIHGVGKLD [ZNF611]” gave a median enrichment of 6.92. With KCSIYIYN [REC114] the median enrichment was 18.5. With “KCYRLNDSASRLPKSKALFRAAHSFPQKSS [HIST1H4E]” the median enrichment was 8.92. KDCDFFVKEAVRIIINNSNSLHFSQGVHCS [MAATS1] showed a median enrichment of 5.42. Substance KDS [RPAP1] has a median enrichment of 0.532. With KECSKCGGKS [ZNF671] the median enrichment was 0.995. KEENKQNQPPHHRVLQQDMHTIGA [CDCA7L] showed a median enrichment of 11.9. For KEHLWFT [NPAP1], the median enrichment was 1.2. Work on KELFQFIE [FOXJ3] yielded a median enrichment of 0.495. Work on KFFRMQPGGTWI [DCAF4L2] yielded a median enrichment of 2.96. For KFGAQTSP [SPRR3], the median enrichment was 0.603. KFLSF [FNBP4] was tested, and the median enrichment was 1.62. Substance KFRSPHFSAPRMVLFIFHHL [SLC43A3] has a median enrichment of 9.56. Substance “KFSLLHYVHKGDHYHWGRNSCLVQCGKFLYIR [PDZRN3]” has a median enrichment of 12.1. In the case of KFVISFICIYVVN [HEATR5B], the median enrichment is reported as 13.7. With KGN [CYTL1] the median enrichment was 0.283. For “KGPEPGWGISAGQRRRLSQLFPDIQGHCSLLPSRTSLLPPTMAGGEQVSQKHPVPRMVLCACPSLLGLPFPLLREDVSLLTCT [KIRREL1]”, the median enrichment was 7.38. Work on “KGPPLLILPTPPPRFSHWPGLGCPYRRSVCSPTVRRGHTLQNTAQNSKKSLHAK [IFI35]” yielded a median enrichment of 11.2. In the case of “KGPPRAQGPGAPRGWGQTKTRQRGERRERAGAGPLGAELGASGGRRLMFYKL [IER5L]”, the median enrichment is reported as 40.8. KGRGPAESPCCLLEPPADAVLGPT [MBD3] gave a median enrichment of 1.08. Substance KGRINK [NPIPA1] has a median enrichment of 0.274. With KHGGFGS [AKAIN1] the median enrichment was 0.558. In the case of “KHHQSVKGLCGMQEFQTHGQSGLFFLVLRASSEHRSHIAAHREGWNEKWKRGSTFLLGDMNHLCSYYVIRNLVAWPYLAAREP [CFAP61]”, the median enrichment is reported as 4.22. Substance KHLHVLSNFACPFSSVSE [CYB5R2] has a median enrichment of 2.44. KHVVLWVHFV [ABHD3] gave a median enrichment of 10.5. Substance KICQDKGSEDWTCSDIGVLLPSS [MAPK1] has a median enrichment of 2.3. Substance “KIFFSPIFLPASGDTAAVTREASLGGPDAQGESWSGESMSCDTTAGAICSPAFLSVGEGISEFILYPRLAFTKFKSLSMRPRP [PGPEP1]” has a median enrichment of 11.5. KIFLELLAIVTECPPFQSQLKTSAP [HEY2] gave a median enrichment of 4.36. For “KILNLVCRPSRGIKRLALVVKNKADSQTRSDFCPCSSFDVLSVALFLIASSTCKMLFTFCLG [DAB2]”, the median enrichment was 18.3. In the case of KIMRHTV [TBC1D32], the median enrichment is reported as 6.86. In the case of “KISVETYTVSSQLLMVLMSLDLDTGLVPSLVSKCLILRVK [VHL]”, the median enrichment is reported as 5.01. Work on KITF [SNCAIP] yielded a median enrichment of 0.77. Substance “KIWLFMHCGMCSSFSVFRYKVLYQSVIYKVYQHKCW [MLH1]” has a median enrichment of 5.38. Work on KKCEECGKSFS [ZNF676] yielded a median enrichment of 0.361. In the case of KKEKKQAILDENANGKIHITSYLL [PRDM4], the median enrichment is reported as 6.45. With KKK [Lys03] the median enrichment was 0.373. In the case of KKKEKKAKKKK [IQCA1], the median enrichment is reported as 0.903. Work on KKKK [Lys04] yielded a median enrichment of 0.575. KKKKK [Lys05] showed a median enrichment of 0.46. KKKKKK [Lys06] showed a median enrichment of 1.5. KKKKKKK [Lys07] showed a median enrichment of 0.751. Substance KKKKKKKK [Lys08] has a median enrichment of 1.65. KKKKKKKKK [Lys09] gave a median enrichment of 3.65. For KKKKKKKKKK [Lys10], the median enrichment was 1.08.
